Measured values published in article PMC6786531.

How the values were obtained:
[1] = target: Paclitaxel-stabilised microtubules of unlabelled porcine brain tubulin (porcine) (UniProt P02550)
[2] = target: Paclitaxel-stabilised microtubules containing 10% X-rhodamine-labelled and 10% biotin-labelled tubulin (porcine) (UniProt P02550)
[3] = target: P. falciparum kinesin-8X motor domain with C-terminal SNAPf tag, biotinylated (Pfkinesin-8X-MD-SNAP) (P. falciparum)
[4] = target: P. berghei kinesin-8X motor domain with C-terminal SNAPf tag, biotinylated (Pbkinesin-8X-MD-SNAP) (P. berghei)

With “P. berghei kinesin-8X motor domain (Pbkinesin-8X-MD) (domain or fragment)” the MT-stimulated ATPase activity, K1/2(MT) (enzyme-coupled assay, 250 nM motor domain, 0-6 uM paclitaxel-stabilised MTs, 37°C) [1] was 2.2 µM, the MT-stimulated ATPase activity, Vmax (enzyme-coupled assay, 37°C) [1] was 2.2 ATP/s and the MT depolymerization rate with AMPPNP (TIRF microscopy, 2.5 uM motor domain, 5 mM nucleotide, room temperature) [2] was 1.8 nm/s. For the same substance, the MT depolymerization rate with ATP (TIRF microscopy, 2.5 uM motor domain, 5 mM nucleotide, room temperature) [2] was 4.3 nm/s.

“P. falciparum kinesin-8X motor domain (Pfkinesin-8X-MD) (domain or fragment)” gave an MT-stimulated ATPase activity, K1/2(MT) (enzyme-coupled assay, 250 nM motor domain, 0-6 uM paclitaxel-stabilised MTs, 26°C) [1] of 1.3 µM, an MT-stimulated ATPase activity, Vmax (enzyme-coupled assay, 26°C) [1] of 6.5 ATP/s and an MT depolymerization rate with AMPPNP (TIRF microscopy, 2.5 uM motor domain, 5 mM nucleotide, room temperature) [2] of 0.3 nm/s. It also gave an MT depolymerization rate with ATP (TIRF microscopy, 2.5 uM motor domain, 5 mM nucleotide, room temperature) [2] of 0.5 nm/s.

With “Paclitaxel-stabilised microtubules containing 10% X-rhodamine-labelled tubulin (from UniProt P02550 1-451) (complex)” the MT gliding velocity on surface-held biotinylated motor domain (TIRF microscopy, 5 mM ATP, room temperature) [3] was 3.7 nm/s and the MT gliding velocity on surface-held biotinylated motor domain (TIRF microscopy, 5 mM ATP, room temperature) [4] was 17.8 nm/s.
